Experimental data: article PMC5622162, “PLPP/CIN Regulates Seizure Activity by the Differential Modulation of Calsenilin Binding to GluN1 and Kv4.2 in Mice” (Frontiers in Molecular Neuroscience, 2017)

Target: T1, calsenilin (CSEN), endogenous in mouse hippocampus or brain (mouse (endogenous in hippocampus), UniProt Q9QXT8 1-256)
T1 construct: calsenilin (CSEN, DREAM, KChIP3), endogenous mouse protein; a mixture of phosphorylated and dephosphorylated forms in the lysate; The state of phosphorylation differs with genotype and treatment; also called pCSEN; DREAM; source: endogenous, mouse hippocampus lysate (RIPA); crude extracts of PLPP/CIN-/- mouse brain
T1 sequence (looked up): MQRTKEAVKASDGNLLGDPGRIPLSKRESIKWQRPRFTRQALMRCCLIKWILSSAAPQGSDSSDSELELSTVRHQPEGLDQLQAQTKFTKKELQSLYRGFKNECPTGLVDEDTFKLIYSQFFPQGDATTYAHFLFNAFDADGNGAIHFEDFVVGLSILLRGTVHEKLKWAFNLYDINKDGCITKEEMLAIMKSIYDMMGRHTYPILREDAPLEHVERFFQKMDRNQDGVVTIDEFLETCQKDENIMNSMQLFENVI
Assay: co-IP; in vitro: recombinant PLPP/CIN (10 ng/ul) added to crude extracts of PLPP/CIN^-/- mouse brain at 30°C for 1 h; co-precipitation with endogenous CSEN and western blot
Details: one partner purified

B1: recombinant human pyridoxal-5'-phosphate phosphatase/chronophin (PLPP/CIN) (enzyme, UniProt Q96GD0 1-296, looked up)
chain: MARCERLRGAALRDVLGRAQGVLFDCDGVLWNGERAVPGAPELLERLARAGKAALFVSNNSRRARPELALRFARLGFGGLRAEQLFSSALCAARLLRQRLPGPPDAPGAVFVLGGEGLRAELRAAGLRLAGDPSAGDGAAPRVRAVLVGYDEHFSFAKLREACAHLRDPECLLVATDRDPWHPLSDGSRTPGTGSLAAAVETASGRQALVVGKPSPYMFECITENFSIDPARTLMVGDRLETDILFGHRCGMTTVLTLTGVSRLEEAQAYLAAGQHDLVPHYYVESIADLTEGLED
notes: pyridoxal-5'-phosphate phosphatase/chronophin (PLPP/CIN), human, recombinant protein from Abcam; the words 'full-length recombinant human' stand before CSEN and are read as holding for PLPP/CIN too; source: bought: Abcam (recombinant)
- binding of CSEN with CK1 left in the presence of PLPP/CIN, fold of vehicle: 0.68 fold of vehicle level
